{"source": "patent US9618524B2", "about": "“Method, composition, isolation and identification of a plaque particle and related biomarker” (Plaxgen Inc., priority 2012, dated 2017)", "assay_in_all_cases": "Mass spectroscopy proteomics, semi-quantitative binding affinity of serum proteins (plaqueproteome, Table 2)", "settings_in_all_cases": "higher number = stronger affinity", "key": {"Tau plaque particles": {"tested_on": "Tau plaque particles", "set-up": "species or system human", "procedure": "For Tau-74 (74-102) (Exon 3/Insert 2 domain) preparation, 1 mg of Tau-74 was suspended in 1 mL of PBS and the sample was incubated at 37° C. for 2 hrs. Similarly for preparing Tau-275 (275-305) (Repeat 2 domain) 1 mg of the peptide was suspended in 1 mL of PBS and the sample was incubated at 37° C. for 2 hrs. After incubation, all the samples were centrifuged for 5 min. at 5000 rpm to remove precipitate, if any, and the supernatant containing oligomers/aggregates were used for in vitro amyloid plaque particles formation assay. For detecting Tau plaque particles, Thioflavin S (Ex/Em=430 nm/550 nm) amyloid binding fluorescent dye (10 μg) was used in the assay.\nNext, to isolate Tau plaque particles, as performed for Abeta-42 and Abeta-28 plaque particles isolation, diluted serum samples were used for incubation separately with Tau-45, Tau-74 and Tau-275 oligomers/aggregates. Each assay was performed in 1 mL reaction (800 μL of 50% plasma or serum) and 200 μL (30 μg) of each Tau aggregates and the mixtures were incubated at 37° C. for 1 hr. To the each mixture Thioflavin S dye (120 μg) was added and the sample was incubated for additional 30 min at 37° C. After the incubation, each sample was directly used for sample acquisition using flow cytometer (FACS ARIA II, BD Biosciences, San Jose, Calif.). After initial detection of Tau plaque particles, gates were drawn in the acquisition blot to separately sort and isolate fluorescently labeled Tau plaque particles.\n(§1) For preparing trypsin digested peptide sequences, the isolated plaque particles were centrifuged at 10000 rpm for 5 min and the pellet containing plaque particles was resuspended in 100 μl PBS buffer. Stock solutions of digestion buffer (Ammonium Biocarbonate 50 mM), reducing buffer (DDT 100 mM) and alkylation buffer (lodoaceamide 100 mM) were prepared and stored at −20° C. for up to two months. For trypsin digestion, 100 μl of each plaque particles (2000 of Abeta-42, cholesterol, Tau and alpha-synuclein) were precipitated using cold acetone −80° C. by adding 4X's the volume. The samples were placed on dry ice for 10 min with intermittent vortex. Next, the samples were centrifuged at 4° C. at 10000 G for 10 min. Top layer of acetone was carefully removed from the tube with care not to disturb the plaque particles pellet. The samples were speed-vac for 10 min to ensure all acetone has been boiled away. The plaque particles pellet were reconstituted with 15 μl 8M Urea 100 mM Ammonium bicarbonate stock and 20 μl protease max solution. The protease max solution (Promega, Madison, Wis.) was prepared from stock by adding 60 μl 50 mM Ammonium bicarbonate and used for 3 solution digests (20 μl each). […] The tubes were incubated at 55° C. for 30 minutes. The tubes were then removed and brought to the room temperature followed by addition of 3.2 μl of 1M acrylamide and incubated at room temperature for 30 minutes. To the sample, 63 μL of 50 mM Ammonium bicarbonate was added for a final volume of 98 μl and 2 μl of trypsin (10 μg, Trypsin/Lys C Mix). After mixing the solution with pipet the samples were incubated at 37° C. overnight. After the overnight digest, the tryptic digest were quenched and acidified by adding 10 μl of 50% formic acid/water stock dilution. The samples were centrifuged at 10000 G for 2 minutes and purified using stage tip and used for MS/Mass analysis.\n(§2) All MS/MS samples were analyzed using Sequest (Thermo Fisher Scientific, San Jose, Calif., USA; version 1.0). Sequest was set up to search the SUMS_uniprot_Human database (35847 entries) assuming the digestion enzyme strict trypsin. Sequest was searched with a fragment ion mass tolerance of 1.00 Da and a parent ion tolerance of 20 PPM. Propionamide of cysteine was specified in Sequest as a fixed modification. Oxidation of methionine and phospho of serine, threonine and tyrosine were specified in Sequest as variable modifications."}, "[1]": {"biological_target": "T1, Abeta-42 plaque particles (Homo sapiens, UniProt P05067)", "T1 construct": "Abeta 1-42", "procedure": "Next to isolate serum derived Abeta-42 plaque particles, the plasma or serum samples obtained from AD subjects were first centrifuged at 5,000 rpm for 5 min and the supernatants were transferred to new centrifuge tubes. Next, the supernatants were diluted in PBS to make 50% of the serum and plasma samples and used for incubation with Abeta-42 plaque oligomers/aggregates. Each assay was performed in 1 mL reaction (800 μL of 50% plasma or serum) and 200 μL (30 μg) of the Abeta-42 aggregates and the mixtures were incubated at 37° C. for 1 hr. To the mixture Thioflavin S dye (120 μg) was added and the sample was incubated for additional 30 min at 37° C. After the incubation, the mixture was directly used for sample acquisition using flow cytometer (FACS ARIA II, BD Biosciences, San Jose, Calif.). After initial detection of Abeta-42 plaque particles in the acquisition blot, gates were drawn in fluorescent dot blot to separately sort and isolate fluorescently labeled Abeta-42 particles.\nas §1, §2\nScaffold (version Scaffold_4.2.1, Proteome Software Inc., Portland, Oreg.) was used to validate MS/MS based peptide and protein identifications. […] Protein probabilities were assigned by the Protein Prophet algorithm (Nesvizhskii, Al et al 2003). […] Proteins sharing significant peptide evidence were grouped into clusters. Proteins were annotated with GO terms from NCBI (downloaded Jan. 17, 2014)."}, "[2]": {"tested_on": "Low density cholesterol (Chl small) plaque particles", "set-up": "species or system human", "procedure": "(§3) The goal was to isolate plaque particles synthesized in the bio-fluids in a relatively pure form to enable their subsequent use for identification of components that contribute to the plaque formation. In order to isolate cholesterol plaque particles, the plasma or serum samples obtained from atherosclerotic subjects were first centrifuged at 5,000 rpm for 5 min and the supernatants were transferred to new centrifuge tubes. Next, the supernatants were diluted in PBS to make 50% of the serum and used for incubation with cholesterol oligomers/aggregates. Each assay was performed in 1 mL reaction (800 μL of 50% plasma or serum) and 200 μL (30 μg) of the Cholesterol aggregates and the mixtures were incubated at 37° C. for 1 hr After the incubation, the mixture was directly used for sample acquisition using flow cytometer (FACS ARIA II, BD Biosciences, San Jose, Calif.). […] In order to isolate these fractions, three sets of gates were drawn in the acquisition blot to separately sort and isolate High density or high complex cholesterol particles, Low density or low complex cholesterol particles and both High and low density cholesterol particles together.\nas §1, §2\n(§4) Scaffold (version Scaffold_4.2.1, Proteome Software Inc., Portland, Oreg.) was used to validate MS/MS based peptide and protein identifications. […] Protein probabilities were assigned by the Protein Prophet algorithm (Nesvizhskii, Al et al 2003)."}, "[3]": {"tested_on": "High Density cholesterol (Chl Large) plaque particles", "set-up": "species or system human", "procedure": "as §3, §1, §2, §4"}, "[4]": {"biological_target": "T2, alpha-synuclein plaque particles (Homo sapiens, UniProt P37840)", "T2 construct": "140 amino acids polypeptide", "procedure": "To prepare oligomers/aggregates of human alpha-synuclein (140 amino acids polypeptide), 1 mg of the recombinant alpha-synuclein protein was suspended in 1 mL of PBS and the sample was incubated at 37° C. for 2 hrs. After incubation, all the samples were centrifuged for 5 min. at 5000 rpm to remove precipitate, if any, and the supernatant containing oligomers/aggregates were used in vitro plaque particles formation assay. For detecting alpha-synuclein plaque particles Thioflavin S (Ex/Em=430 nm/550 nm) amyloid binding fluorescent dye (10 μg) was used.\nSimilarly, to isolate alpha-synuclein plaque particles, diluted plasma or serum samples obtained from AD subjects were used for incubation with alpha-synuclein plaque oligomers/aggregates. Each assay was performed in 1 mL reaction (800 μL of 50% plasma or serum) and 200 μL (30 μg) of the alpha-synuclein aggregates and the mixtures were incubated at 37° C. for 1 hr. To the mixture Thioflavin S dye (120 μg) was added and the sample was incubated for additional 30 min at 37° C. After the incubation, the mixture was directly used for sample acquisition using flow cytometer (FACS ARIA II, BD Biosciences, San Jose, Calif.). After initial detection of alpha-synuclein plaque particles, gates were drawn in the acquisition blot to separately sort and isolate fluorescently labeled alpha-synuclein particles.\nas §1, §2\nScaffold (version Scaffold_4.2.1, Proteome Software Inc., Portland, Oreg.) was used to validate MS/MS based peptide and protein identifications."}}, "data": [{"molecule": "Heparin cofactor 2 (protein) GSKGPLDQLEKGGETAQSADPQWEQLNNKNLSMPLLPADFHKENTVTNDWIPEGEEDDDYLDLEKIFSEDDDYIDIVDSLSVSPTDSDVSAGNILQLFHGKSRIQRLNILNAKFAFNLYRVLKDQVNTFDNIFIAPVGISTAMGMISLGLKGETHEQVHSILHFKDFVNASSKYEITTIHNLFRKLTHRLFRRNFGYTLRSVNDLYIQKQFPILLDFKTKVREYYFAEAQIADFSDPAFISKTNNHIMKLTKGLIKDALENIDPATQMMILNCIYFKGSWVNKFPVEMTHNHNFRLNEREVVKVSMMQTKGNFLAANDQELDCDILQLEYVGGISMLIVVPHKMSGMKTLEAQLTPRVVERWQKSMTNRTREVLLPKFKLEKNYNLVESLKLMGIRMLFDKNGNMAGISDQRIAIDLFKHQGTITVNEEGTQATTVTTVGFMPLSTQVRFTVDRPFLFLIYEHRTSCLLFMGRVANPSRS", "values": [{"measurement": "Semi-quantitative analysis of proteins binding to different plaque particles: Tau", "setting": "Tau plaque particles", "value": 6}, {"measurement": "Semi-quantitative analysis of proteins binding to different plaque particles: Abeta-42", "setting": "[1]", "value": 0}, {"measurement": "Semi-quantitative analysis of proteins binding to different plaque particles: Chl small", "setting": "[2]", "value": 1}, {"measurement": "Semi-quantitative analysis of proteins binding to different plaque particles: Chl Large", "setting": "[3]", "value": 3}, {"measurement": "Semi-quantitative analysis of proteins binding to different plaque particles: Synuclein", "setting": "[4]", "value": 1}]}, {"molecule": "Complement C1r subcomponent (protein) SIPIPQKLFGEVTSPLFPKPYPNNFETTTVITVPTGYRVKLVFQQFDLEPSEGCFYDYVKISADKKSLGRFCGQLGSPLGNPPGKKEFMSQGNKMLLTFHTDFSNEENGTIMFYKGFLAYYQAVDLDECASRSKSGEEDPQPQCQHLCHNYVGGYFCSCRPGYELQEDTHSCQAECSSELYTEASGYISSLEYPRSYPPDLRCNYSIRVERGLTLHLKFLEPFDIDDHQQVHCPYDQLQIYANGKNIGEFCGKQRPPDLDTSSNAVDLLFFTDESGDSRGWKLRYTTEIIKCPQPKTLDEFTIIQNLQPQYQFRDYFIATCKQGYQLIEGNQVLHSFTAVCQDDGTWHRAMPRCKIKDCGQPRNLPNGDFRYTTTMGVNTYKARIQYYCHEPYYKMQTRAGSRESEQGVYTCTAQGIWKNEQKGEKIPRCLPVCGKPVNPVEQRQRIIGGQKAKMGNFPWQVFTNIHGRGGGALLGDRWILTAAHTLYPKEHEAQSNASLDVFLGHTNVEELMKLGNHPIRRVSVHPDYRQDESYNFEGDIALLELENSVTLGPNLLPICLPDNDTFYDLGLMGYVSGFGVMEEKIAHDLRFVRLPVANPQACENWLRGKNRMDVFSQNMFCAGHPSLKQDACQGDSGGVFAVRDPNTDRWVATGIVSWGIGCSRGYGFYTKVLNYVDWIKKEMEEED", "values": [{"measurement": "Semi-quantitative analysis of proteins binding to different plaque particles: Tau", "setting": "Tau plaque particles", "value": 4}, {"measurement": "Semi-quantitative analysis of proteins binding to different plaque particles: Abeta-42", "setting": "[1]", "value": 0}, {"measurement": "Semi-quantitative analysis of proteins binding to different plaque particles: Chl small", "setting": "[2]", "value": 4}, {"measurement": "Semi-quantitative analysis of proteins binding to different plaque particles: Chl Large", "setting": "[3]", "value": 2}, {"measurement": "Semi-quantitative analysis of proteins binding to different plaque particles: Synuclein", "setting": "[4]", "value": 3}]}, {"molecule": "Complement factor I (protein) KVTYTSQEDLVEKKCLAKKYTHLSCDKVFCQPWQRCIEGTCVCKLPYQCPKNGTAVCATNRRSFPTYCQQKSLECLHPGTKFLNNGTCTAEGKFSVSLKHGNTDSEGIVEVKLVDQDKTMFICKSSWSMREANVACLDLGFQQGADTQRRFKLSDLSINSTECLHVHCRGLETSLAECTFTKRRTMGYQDFADVVCYTQKADSPMDDFFQCVNGKYISQMKACDGINDCGDQSDELCCKACQGKGFHCKSGVCIPSQYQCNGEVDCITGEDEVGCAGFASVTQEETEILTADMDAERRRIKSLLPKLSCGVKNRMHIRRKRIVGGKRAQLGDLPWQVAIKDASGITCGGIYIGGCWILTAAHCLRASKTHRYQIWTTVVDWIHPDLKRIVIEYVDRIIFHENYNAGTYQNDIALIEMKKDGNKKDCELPRSIPACVPWSPYLFQPNDTCIVSGWGREKDNERVFSLQWGEVKLISNCSKFYGNRFYEKEMECAGTYDGSIDACKGDSGGPLVCMDANNVTYVWGVVSWGENCGKPEFPGVYTKVANYFDWISYHVGRPFISQYNV", "values": [{"measurement": "Semi-quantitative analysis of proteins binding to different plaque particles: Tau", "setting": "Tau plaque particles", "value": 3}, {"measurement": "Semi-quantitative analysis of proteins binding to different plaque particles: Abeta-42", "setting": "[1]", "value": 0}, {"measurement": "Semi-quantitative analysis of proteins binding to different plaque particles: Chl small", "setting": "[2]", "value": 3}, {"measurement": "Semi-quantitative analysis of proteins binding to different plaque particles: Chl Large", "setting": "[3]", "value": 4}, {"measurement": "Semi-quantitative analysis of proteins binding to different plaque particles: Synuclein", "setting": "[4]", "value": 4}]}]}
